Blank lines part the entries; values can stand above or below the binder they belong to.
Assays:
[1] = biological target: HA-HDAC4c, wild type, expressed in HEK293 cells (human, UniProt P56524 650-1055); assay: cell-based or functional assay
[2] = biological target: T1, KGN-SRD3c (N-terminal portion of Kusabira Green protein fused with SRD3c) (human, UniProt Q9Y618 1281-1504); assay: split reporter (BiFC, NanoBiT); quantitative BiFC (Kusabira Green, Fluo-Chase kit): KGN-SRD3c and KGC-HDAC coexpressed in HEK293, 48 h; fluorescence of cell lysates by spectrophotometer (ex 494 nm, em 538 nm); details: partners not purified
T1 construct: human SMRT, SRD3c region, amino acid 1281 to 1504; The methods say that KGN-MC-SRD3c was made in the KGC-MC vector; also called KGN-MC-SRD3c; source: HEK293, transfected, in cells or lysate
T1 sequence (Q9Y618 1281-1504): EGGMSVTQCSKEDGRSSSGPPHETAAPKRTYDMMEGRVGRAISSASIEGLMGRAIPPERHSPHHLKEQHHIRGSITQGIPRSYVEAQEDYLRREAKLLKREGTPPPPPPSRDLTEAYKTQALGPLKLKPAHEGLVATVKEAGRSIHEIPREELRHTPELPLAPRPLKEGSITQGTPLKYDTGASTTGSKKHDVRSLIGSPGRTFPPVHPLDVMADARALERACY

- fold repression of a Gal4-tk-luciferase reporter by Gal4N-fused wild-type HDAC4c (50 and 100 ng plasmid) in HEK293 cells; endogenous SMRT-HDAC3 complex [1]: 7 fold
B1: Human HDAC3 (enzyme, UniProt O15379 1-428, looked up)
chain: MAKTVAYFYDPDVGNFHYGAGHPMKPHRLALTHSLVLHYGLYKKMIVFKPYQASQHDMCRFHSEDYIDFLQRVSPTNMQGFTKSLNAFNVGDDCPVFPGLFEFCSRYTGASLQGATQLNNKICDIAINWAGGLHHAKKFEASGFCYVNDIVIGILELLKYHPRVLYIDIDIHHGDGVQEAFYLTDRVMTVSFHKYGNYFFPGTGDMYEVGAESGRYYCLNVPLRDGIDDQSYKHLFQPVINQVVDFYQPTCIVLQCGADSLGCDRLGCFNLSIRGHGECVEYVKSFNIPLLVLGGGGYTVRNVARCWTYETSLLVEEAISEELPYSEYFEYFAPDFTLHPDVSTRIENQNSRQYLDQIRQTIFENLKMLNHAPSVQIHDVPADLLTYDRTDEADAEERGPEENYSRPEAPNEFYDGDHDNDKESDVEI

- fold increase of the BiFC fluorescent signal over the KGC empty vector [2]: ~2 fold
B2: KGC-HDAC4c (C-terminal portion of Kusabira Green protein fused with HDAC4c), wild type (domain or fragment, human, UniProt P56524 650-1055, looked up)
chain: PRFTTGLVYDTLMLKHQCTCGSSSSHPEHAGRIQSIWSRLQETGLRGKCECIRGRKATLEELQTVHSEAHTLLYGTNPLNRQKLDSKKLLGSLASVFVRLPCGGVGVDSDTIWNEVHSAGAARLAVGCVVELVFKVATGELKNGFAVVRPPGHHAEESTPMGFCYFNSVAVAAKLLQQRLSVSKILIVDWDVHHGNGTQQAFYSDPSVLYMSLHRYDDGNFFPGSGAPDEVGTGPGVGFNVNMAFTGGLDPPMGDAEYLAAFRTVVMPIASEFAPDVVLVSSGFDAVEGHPTPLGGYNLSARCFGYLTKQLMGLAGGRIVLALEGGHDLTAICDASEACVSALLGNELDPLPEKVLQQRPNANAVRSMEKVMEIHSKYWRCLQRTTSTAGRSLIEAQTCENEEAET
notes: also called KGC-MC-HDAC4c; source: HEK293, transfected, in cells or lysate

- fold increase of the BiFC fluorescent signal over the KGC empty vector [2]: ~2 fold
B3: KGC-HDAC5c (C-terminal portion of Kusabira Green protein fused with HDAC5c), wild type (domain or fragment, human, UniProt Q9UQL6 680-1087, looked up)
chain: LFTTGVVYDTFMLKHQCMCGNTHVHPEHAGRIQSIWSRLQETGLLSKCERIRGRKATLDEIQTVHSEYHTLLYGTSPLNRQKLDSKKLLGPISQKMYAVLPCGGIGVDSDTVWNEMHSSSAVRMAVGCLLELAFKVAAGELKNGFAIIRPPGHHAEESTAMGFCFFNSVAITAKLLQQKLNVGKVLIVDWDIHHGNGTQQAFYNDPSVLYISLHRYDNGNFFPGSGAPEEVGGGPGVGYNVNVAWTGGVDPPIGDVEYLTAFRTVVMPIAHEFSPDVVLVSAGFDAVEGHLSPLGGYSVTARCFGHLTRQLMTLAGGRVVLALEGGHDLTAICDASEACVSALLSVELQPLDEAVLQQKPNINAVATLEKVIEIQSKHWSCVQKFAAGLGRSLREAQAGETEEAETVS
notes: human HDAC5 catalytic domain, amino acids 680 to 1087; also called KGC-MC-HDAC5c; source: HEK293, transfected, in cells or lysate
